No end group written: not given here. *: point of attachment. Biotin = O=C1N[C@H]2[C@H](CS[C@H]2CCCCC(=O)*)N1
Columns and labels:
[1] = biological target: T1, asyn_113-127_114A (human); assay: Ala-scan peptide ELISA, row A, run 1
T1 construct: substitution is already in the entry; also called pep3
T1 peptide: Biotin-LADMPVDPDNEAYEM

[2] = biological target: T2, asyn_113-127_116A (human); assay: Ala-scan peptide ELISA, row A, run 1
T2 construct: substitution is already in the entry; also called pep5
T2 peptide: Biotin-LEDAPVDPDNEAYEM

[3] = biological target: T3, asyn_113-127_120A (human); assay: Ala-scan peptide ELISA, row A, run 1
T3 construct: substitution is already in the entry; also called pep9
T3 peptide: Biotin-LEDMPVDADNEAYEM

[4] = biological target: T4, biotinylated human alpha-synuclein (human, UniProt P37840 1-140); assay: Ala-scan peptide ELISA, row A, run 1
[5] = biological target: T1, asyn_113-127_114A; assay: Ala-scan peptide ELISA, row F, run 1
[6] = biological target: T2, asyn_113-127_116A; assay: Ala-scan peptide ELISA, row F, run 1
[7] = biological target: T5, asyn_113-127_117A (human); assay: Ala-scan peptide ELISA, row F, run 1
T5 construct: substitution is already in the entry; also called pep6
T5 peptide: Biotin-LEDMAVDPDNEAYEM

[8] = biological target: T6, asyn_113-127_118A (human); assay: Ala-scan peptide ELISA, row F, run 1
T6 construct: substitution is already in the entry; also called pep7
T6 peptide: Biotin-LEDMPADPDNEAYEM

[9] = biological target: T7, asyn_113-127_119A (human); assay: Ala-scan peptide ELISA, row F, run 1
T7 construct: substitution is already in the entry; also called pep8
T7 peptide: Biotin-LEDMPVAPDNEAYEM

[10] = biological target: T8, asyn_113-127_121A (human); assay: Ala-scan peptide ELISA, row F, run 1
T8 construct: substitution is already in the entry; also called pep10
T8 peptide: Biotin-LEDMPVDPANEAYEM

[11] = biological target: T9, asyn_113-127_122A (human); assay: Ala-scan peptide ELISA, row F, run 1
T9 construct: substitution is already in the entry; also called pep11
T9 peptide: Biotin-LEDMPVDPDAEAYEM

[12] = biological target: T10, asyn_113-127_123A (human); assay: Ala-scan peptide ELISA, row F, run 1
T10 construct: substitution is already in the entry; also called pep12
T10 peptide: Biotin-LEDMPVDPDNAAYEM

[13] = biological target: T11, asyn_113-127_124G (human); assay: Ala-scan peptide ELISA, row F, run 1
T11 construct: substitution is already in the entry; also called pep13
T11 peptide: Biotin-LEDMPVDPDNEGYEM

[14] = biological target: T12, asyn_113-127_124P (human); assay: Ala-scan peptide ELISA, row F, run 1
T12 construct: substitution is already in the entry; also called pep14
T12 peptide: Biotin-LEDMPVDPDNEPYEM

[15] = biological target: T13, asyn_113-127_125A (human); assay: Ala-scan peptide ELISA, row F, run 1
T13 construct: substitution is already in the entry; also called pep15
T13 peptide: Biotin-LEDMPVDPDNEAAEM

[16] = biological target: T14, asyn_113-127_126A (human); assay: Ala-scan peptide ELISA, row F, run 1
T14 construct: substitution is already in the entry; also called pep16
T14 peptide: Biotin-LEDMPVDPDNEAYAM

[17] = biological target: T15, asyn_113-127_127A (human); assay: Ala-scan peptide ELISA, row F, run 1
T15 construct: substitution is already in the entry; also called pep17
T15 peptide: Biotin-LEDMPVDPDNEAYEA

[18] = biological target: T4, biotinylated human alpha-synuclein; assay: Ala-scan peptide ELISA, row F, run 1
[19] = biological target: T16, asyn_113-127 (human); assay: Ala-scan peptide ELISA, row G, run 1
T16 construct: also called pep1
T16 peptide: Biotin-LEDMPVDPDNEAYEM

[20] = biological target: T17, asyn_113-127_113A (human); assay: Ala-scan peptide ELISA, row G, run 1
T17 construct: substitution is already in the entry; also called pep2
T17 peptide: Biotin-AEDMPVDPDNEAYEM

[21] = biological target: T1, asyn_113-127_114A; assay: Ala-scan peptide ELISA, row G, run 1
[22] = biological target: T18, asyn_113-127_115A (human); assay: Ala-scan peptide ELISA, row G, run 1
T18 construct: substitution is already in the entry; also called pep4
T18 peptide: Biotin-LEAMPVDPDNEAYEM

[23] = biological target: T2, asyn_113-127_116A; assay: Ala-scan peptide ELISA, row G, run 1
[24] = biological target: T5, asyn_113-127_117A; assay: Ala-scan peptide ELISA, row G, run 1
[25] = biological target: T6, asyn_113-127_118A; assay: Ala-scan peptide ELISA, row G, run 1
[26] = biological target: T7, asyn_113-127_119A; assay: Ala-scan peptide ELISA, row G, run 1
[27] = biological target: T3, asyn_113-127_120A; assay: Ala-scan peptide ELISA, row G, run 1
[28] = biological target: T8, asyn_113-127_121A; assay: Ala-scan peptide ELISA, row G, run 1
[29] = biological target: T9, asyn_113-127_122A; assay: Ala-scan peptide ELISA, row G, run 1
[30] = biological target: T10, asyn_113-127_123A; assay: Ala-scan peptide ELISA, row G, run 1
[31] = biological target: T11, asyn_113-127_124G; assay: Ala-scan peptide ELISA, row G, run 1
[32] = biological target: T12, asyn_113-127_124P; assay: Ala-scan peptide ELISA, row G, run 1
[33] = biological target: T13, asyn_113-127_125A; assay: Ala-scan peptide ELISA, row G, run 1
[34] = biological target: T14, asyn_113-127_126A; assay: Ala-scan peptide ELISA, row G, run 1
[35] = biological target: T15, asyn_113-127_127A; assay: Ala-scan peptide ELISA, row G, run 1
[36] = biological target: T4, biotinylated human alpha-synuclein; assay: Ala-scan peptide ELISA, row G, run 1

A450 [1]: 0.505 OD | A450 [2]: 0.524 OD | A450 [3]: 0.414 OD | A450 [4]: 0.66 OD | A450 [5]: 0.153 OD | A450 [6]: 0.172 OD | A450 [7]: 0.174 OD | A450 [8]: 0.169 OD | A450 [9]: 0.05 OD | A450 [10]: 0.153 OD | A450 [11]: 0.05 OD | A450 [12]: 0.171 OD | A450 [13]: 0.145 OD | A450 [14]: 0.044 OD | A450 [15]: 0.044 OD | A450 [16]: 0.149 OD | A450 [17]: 0.144 OD | A450 [18]: 0.243 OD | A450 [19]: 0.089 OD | A450 [20]: 0.095 OD | A450 [21]: 0.083 OD | A450 [22]: 0.058 OD | A450 [23]: 0.098 OD | A450 [24]: 0.102 OD | A450 [25]: 0.107 OD | A450 [26]: 0.048 OD | A450 [27]: 0.08 OD | A450 [28]: 0.091 OD | A450 [29]: 0.049 OD | A450 [30]: 0.093 OD | A450 [31]: 0.099 OD | A450 [32]: 0.044 OD | A450 [33]: 0.046 OD | A450 [34]: 0.098 OD | A450 [35]: 0.094 OD | A450 [36]: 0.141 OD
B1: 20H4 (antibody, rat IgG2b, V domains shown)
VH: AVQLVESGGGLVQPKESLKISCAASGFTFSNAAMYWVRQAPGKGLELLARIRTKPNNYATYHADSVKGRFTISRDDSQSMVYLHMGNLKTEDTAMYYCTADMATGDYWGPGVMVTVSS
VL: DIQMTQSPPVLSVSVGDRVTLSCKASQNINKNLDWYQQKHGEAPKPLIYSTNNLQTGVPSRFSGSGSGTDYTLTISSLQPEDVATYYCYQYKSAWTFGGGTKLELR
notes: also called clone 20H4; rat 20H4

From patent US20230074436A1 (DENALI THERAPEUTICS, published 2023)
